Assay results taken from patent US20260240908A1 (FRED HUTCHINSON CANCER CENTER, published 2026).

What was measured:
[1] = molecular target: T1, PE- or biotin-conjugated human PD-1 Fc fusion protein (Acrobiosystems) (human, UniProt Q15116 25-167, limits assumed, PE- or biotin-conjugated); assay: flow cytometry, PD-1 Fc staining of transduced Jurkat Nur77-NeonGreen cells
T1 construct: Bought reagent (Acrobiosystems); also called PD-1-Fc-PE; PD-1 Fc chimera; not shown: Fc part of the bought fusion protein
Description: The biotin-conjugated PD-1-Fc protein was counterstained with BV421-conjugated Streptavidin (Invitrogen).
The EGFRt-tag was detected as a surrogate marker for CAR expression for the six constructs (FIGS. 2A and 9). CARs directed against antigens expressed in T cells may at times lead to fratricide and hamper CAR T cell production.

[2] = molecular target: T2, PD-1 on the cell surface (Molt-4 cells; KG PD-1 cells) (UniProt Q15116 25-288, limits assumed); assay: flow cytometry of detectable cell surface PD-1 on Molt-4 cells that co-express the CAR (masking in cis)
T2 construct: whole, on cells; Molt-4 is a human acute lymphoblastic leukemia line; also called PD-1-expressing Molt 4 cells; K562 GFP (KG) PD-1 cells
T2 sequence (Q15116 25-288 limits assumed): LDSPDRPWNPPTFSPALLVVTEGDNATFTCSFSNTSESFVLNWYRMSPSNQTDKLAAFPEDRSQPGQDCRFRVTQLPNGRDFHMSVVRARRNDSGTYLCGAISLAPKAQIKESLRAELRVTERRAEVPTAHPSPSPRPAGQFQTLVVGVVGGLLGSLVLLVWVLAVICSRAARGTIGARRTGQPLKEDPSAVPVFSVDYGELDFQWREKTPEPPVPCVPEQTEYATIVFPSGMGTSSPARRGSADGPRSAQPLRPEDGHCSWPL

T1 sequence (Q15116 25-167 limits assumed): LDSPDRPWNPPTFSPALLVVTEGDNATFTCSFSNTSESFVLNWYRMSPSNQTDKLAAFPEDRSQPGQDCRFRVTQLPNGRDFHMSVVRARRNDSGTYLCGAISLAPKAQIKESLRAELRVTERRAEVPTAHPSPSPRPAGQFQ

Binder | binding result [1] | binding result [2]
VH VL S anti-PD-1 CAR BD (binding-defective) (other, Residues 1-22 are the GM-CSF signal peptide, left out) QVQLVQSGVEVKKPGASVKVSCKASGYTFANYFMYWVRQAPGQGLEWMGGIAPAAGGAAFNEKFKNRVTLTTDSSTTTAYMELKSLQFDDTAVYYCARADFAFDMGFDYWGQGTTVTVSSASTKGGGGGSGGGGSGGGGSEIVLTQSPATLSLSPGERATLSCRASKGVSTAGFSYLHWYQQKPGQAPRLLIFLASFLESGVPARFSGSGSGTDFTLTISSLEPEDFAVYYCQHARALPLTFGGGTKVEIKRTVAAPSVFIFPPSDEQLKSGTAESKYGPPCPPCPMFWVLVVVGGVLACYSLLVTVAFIIFWVKRGRKKLLYIFKQPFMRPVQTTQEEDGCSCRFPEEEEGGCELRVKFSRSADAPAYQQGQNQLYNELNLGRREEYDVLDKRRGRDPEMGGKPRRKNPQEGLYNELQKDKMAEAYSEIGMKGERRRGKGHDGLYQGLSTATKDTYDALHMQALPPR | no binding | no binding
VH VL S anti-PD-1 CAR BD ΔCD3ζ (other, Residues 1-22 are the GM-CSF signal peptide, left out) QVQLVQSGVEVKKPGASVKVSCKASGYTFANYFMYWVRQAPGQGLEWMGGIAPAAGGAAFNEKFKNRVTLTTDSSTTTAYMELKSLQFDDTAVYYCARADFAFDMGFDYWGQGTTVTVSSASTKGGGGGSGGGGSGGGGSEIVLTQSPATLSLSPGERATLSCRASKGVSTAGFSYLHWYQQKPGQAPRLLIFLASFLESGVPARFSGSGSGTDFTLTISSLEPEDFAVYYCQHARALPLTFGGGTKVEIKRTVAAPSVFIFPPSDEQLKSGTAESKYGPPCPPCPMFWVLVVVGGVLACYSLLVTVAFIIFWVKRGRKKLLYIFKQPFMRPVQTTQEEDGCSCRFPEEEEGGCEL | no binding | no binding
